{
  "source": "the RNAGym collection of RNA variant scans (doi:10.1073/pnas.2313332121)",
  "parents": {"B1": {"name": "TPR t1 (parent)", "chain": "GACCAAUCUGCCCUCAGAGCUCGAGAACAUCUUCGGAUGCAGAGGAGGCAGGCUUCGGUGGCGCGAUAGCGCCAACGUCCUCAACCUCCAAUGCAUCCCACCACAUGAUGAUGCCUGAAGAGCCUUGGUUUUUUG"}},
  "data": [
    {"variants_of": "B1", "test": "polymerase ribozyme fitness, log enrichment relative to wild type (log ratio); higher = more active; in vitro selection for triplet polymerase activity", "procedure,_shortened": "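For each subunit of a heterodimeric triplet polymerase ribozyme, a mutant library was built by PCR and transcribed, then taken through a single in vitro selection round in triplicate. Selection involved annealing to a biotinylated primer, the partner subunit and triplets, incubation frozen at −7 °C, gel excision of extended constructs, capture on streptavidin beads and RT-PCR. Genotypes were retained after Illumina sequencing of inputs and outputs only with ≥10 input reads and ≥1 read in each output. Fitness is defined as the logarithm of a genotype's enrichment relative to wild-type enrichment, using inverse-variance-weighted averages across replicates, with the logarithm taken to base 2.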", "values": [
      {"variant": "GACCAAUCUGCCCUCAGAGCUCGAGAACAUCUUCGGAUGCAGAGGAGGCAGGCUUCCGUGGCGCGAUAGCGCCAACGUCCUCAACCUCCAAUGCAUCCCACCACAUGAUGAUGGCUGAAGAGCCUUGGUUCUUUG", "note": "[G57C C114G U131C]", "polymerase ribozyme fitness (log ratio)": -2.69},
      {"variant": "GACCAAUCUGCCCUCAGAGCUCGAGAACAUCUUCGGAUGCAGAGGAGGCAGGCUUCGGUGGCGCGAUAGCGCCAACGUCCUCAACCUACAAUGCAUCCUACCACAUGAUGAUAUCUGAAGAGCCUUGGUUUUUUG", "note": "[C88A C99U G113A C114U]", "polymerase ribozyme fitness (log ratio)": -5.9},
      {"variant": "GACCAAUCUGCCCUCAGAGCUCGAGAACAUCUUCGGAUGCAGAGGAGGCAGGCUUCGGUGGCGCGAUAGCGCCAACGUCCUCAACCUCCAAUGCAUCCCACCACAUGAUGAUGCCUGUAUAGCCUUGGUUUUGUG", "note": "[A118U G120U U133G]", "polymerase ribozyme fitness (log ratio)": -0.107},
      {"variant": "GACCAAUCUGCCCUCAGAGCUCGAGAACAUCUUCGGAUGCAGAGGAGGCUGGCUUGGGUGGCGCGAUAGUGCCAACGCCCUCAACCUCCAAUGCAUCCCACCACAUGAUGAUGCCUGAAGAGCCUUGGUUUUUUG", "note": "[A50U C56G C70U U78C]", "polymerase ribozyme fitness (log ratio)": -5.64},
      {"variant": "GACCAAUCUGCCCUCAGAGCUCGAGAACAUCUUCGGAUGCAGAGGAGGCAGGCUUAGGUGGCGCGAUAGCGCCAACGUCCUCAACCUCCAAUGCAUCCCACCACAUGAUGAUGCCUGAAGGGCCUUGGUUUUUUG", "note": "[C56A A121G]", "polymerase ribozyme fitness (log ratio)": 1.77},
      {"variant": "GACCAAUCUGCCCUCUGAGCUCGAGAACAUCUUCGGAUGCAGAGGAGGCAGGCUUCUGUGGCGCGAUAGCGCCAACGUCCUCAACCUCCAAUGCAUCCCACCACAUGAUGAUGCCUGAAGAGCCUUGGUUUUUUG", "note": "[A16U G57U]", "polymerase ribozyme fitness (log ratio)": -1.91},
      {"variant": "GACCAAGCUGCCCUCAGAGCUCGAGAUCAUCUUCGGAUGCAGAGGAGACAGGCUUCGGUGGCGCGAUAGCGCCAACGUCCUCAACCUCCAAUGCAUCCCACCACAUGAUGAAGCCUGAAGAGCCUUGGUUUUUUG", "note": "[U7G A27U G48A U112A]", "polymerase ribozyme fitness (log ratio)": -1.8},
      {"variant": "GACCAAUCUGCCCUCAGAGCUCGAGAACAUCUUCGGAUGCAUAGGAGGCAGGCUUCGGUGGCGCGAUAGCGACGACGUCCUCAACCUCCAAUGCACCCCACCACAUGAUGAUGCCUGAAGAGCCUUGGUUUUUUG", "note": "[G42U C72A A74G U96C]", "polymerase ribozyme fitness (log ratio)": -3.45},
      {"variant": "GACCAAUCUGCCCUCAGAGCUUGAGAACAUCUUCGGAUGCAGAGGAGGCAGGCUUCGGUGGCCCGAUAGCGCCAACGGCCUCAACCUCCAAUGCAUCCCACCACAUGAUGAAGCCUGAAGAGCCUUGGUUUUUUG", "note": "[C22U G63C U78G U112A]", "polymerase ribozyme fitness (log ratio)": -4.23},
      {"variant": "GACCAAUCUGCCCUCAGAGCUCGAGAACAUCUUCGGAUGCAGAGGAGGCAGGCUUCGGUGGCGCGAUAGCGCCAACGUACUCAAACUCCAAUGCAUCCCACCACAUGAUGAUGCCUGAUGAGCCUUGGUUUUUUG", "note": "[C79A C85A A119U]", "polymerase ribozyme fitness (log ratio)": -5.64},
      {"variant": "GACCAAUCUGCCCUCAGAGCUCGAGACCAUCUUCGGAUGCAGAGGAGGCAGGCUUCGGUGGCGCGAUAGCGCCAACGUCCUCAACCUCCAAUGCAUCCCACCACAUGAUGAUGCCUGAAUAGCCUUGGUUUUUUG", "note": "[A27C G120U]", "polymerase ribozyme fitness (log ratio)": -4.08},
      {"variant": "GACCAAUCUGCCCUCAGAGCUCGAGAACAUCUUCGGAUGCAGACGAGGCAGGCUUCGGUGGCGCGAUAGCGCCAACGUCCUCAACCUCCAAUGCUUCCCACCACAUGAUAAUGCCUGAAGAGCCUUGGUUUUUUG", "note": "[G44C A95U G110A]", "polymerase ribozyme fitness (log ratio)": -2.88},
      {"variant": "GACCAAUCUGCCCUCAGAGCUCGAGAACAUCUUCGCAUGCAGAGGAGGCAGGCUUCGGUGGCGCGAUAGCGCCAAGGUCCUCAACCUCCAAUGCAUCCCACCACAUGAUGAUGCCUGAAGAGCCUUGGUUUUUUG", "note": "[G36C C76G]", "polymerase ribozyme fitness (log ratio)": -1.25},
      {"variant": "GACCAAUCUGCCCUCAGAGCUCGAGAACAUCUUCGGAUGCAGAGGAGGCAGGCUUCGGUGGCGCGAUAGCGCCAACGUCCUCAACCUCCAAUGCAUCCCACCACAUGAUGAUGCCUCAAGUGCCUUGGUUUUUUG", "note": "[G117C A121U]", "polymerase ribozyme fitness (log ratio)": -3},
      {"variant": "GACCAAUCUGCCCUCAGAGCUCGAGAACAUCUUCGGAUGCAGAGGAUGCAGGGUUGGGUGGCGCGAUAGCGCCAACGUCCUCAACCUCCAAUGCAUCCCACCACAUGAUGAUGCCUGAAGAGCCUUGGUUUUUUG", "note": "[G47U C53G C56G]", "polymerase ribozyme fitness (log ratio)": -2.42},
      {"variant": "GACUAAUCUGCCCUCAGAGCUCGAGAACAUCUUCGGAUGCAGAGGAGGCAGGCUUCGGUGGCGCGAUAGCGCCAACGUCCUCAACCUCCAAUGCAUCCCACCACAUGAUGAUGCCUGAAGUGCCUUGGUUUUUUG", "note": "[C4U A121U]", "polymerase ribozyme fitness (log ratio)": 2.23},
      {"variant": "GACCAAUCUGCCCUCAGAGCUCGAGAACAUCUUCGGAUGCAGAGGAAGCAGGCUUCGGUGGCGCGAUAGCGCCAACGUCCUCAAUCUCCAAUGCAUCCCAUCACAUGAUGAUGCCUGAAGAGCCUUGGUUUUUUG", "note": "[G47A C85U C101U]", "polymerase ribozyme fitness (log ratio)": -2.15},
      {"variant": "GACCAAUCUUCCCUGAGAUCUCGAGAACAUCUUCGGAUGCAGAGGAGGCAGGCUUCGGUGGCACGAUAGCGCCAACGUCCUCAACCUCCAAUGCAUCCCACCACAUGAUGAUUCCUGAAGAGCAUUGGUUUUUUG", "note": "[G10U C15G G19U G63A G113U C124A]", "polymerase ribozyme fitness (log ratio)": -5.07},
      {"variant": "GACCAAUCUGCCCUCAGAGCUCGAGGACAUCUUCGGAUGCACAGGAGGCAGGCUUCGGUGGCGCGAUAGCGACAACGUCCUCAACCUCCAAUGCAUCCCACCACAUGAUGAUGCCUGAAGAGCCUUGGUUUUUUG", "note": "[A26G G42C C72A]", "polymerase ribozyme fitness (log ratio)": -5.15},
      {"variant": "GACCACUCUGCCCUCAGAGCUCGAGAACAUCUUCGGAUGCAGAGGAGGCAGGCUUCGGUGGCGCGAUAGCGCCAACGUCCUCAAGCUCCAAAGCAUCCCACCACAUGAUGAGGCCUGAAGAGCCUUGGUUUUUUG", "note": "[A6C C85G U92A U112G]", "polymerase ribozyme fitness (log ratio)": -6.59},
      {"variant": "GACCAAUCUGCCCUCAGAGCUCGAGAUCAUCUUCGGAUGCAGAGGAGGCAGACUUCGGUGGCGCGAUAGCGCCAACGUCCUCAACCUUCAAUGCAACCCACCACAUGAUGAUGCCUGAAGAGCCUUGGUUUUUUG", "note": "[A27U G52A C88U U96A]", "polymerase ribozyme fitness (log ratio)": -4.5}
    ]}
  ]
}
